Experiment [1] has as its target MUC1 on normal activated human T cells (human) (UniProt P15941). In words: FACS on PHA-L-activated human PBMC, live αβTCR+ cells, donor 191180405C.
Experiment [2] shares this target. Briefly: FACS on PHA-L-activated human PBMC, live αβTCR+ cells, donor 3011029.
Experiment [3] shares this target. Briefly: FACS on PHA-L-activated human PBMC, live αβTCR+ cells, donor 3009223.
Experiment [4] has the same target. Briefly: FACS on PHA-L-activated human PBMC, live αβTCR+ cells; gating scheme, donor not given.
For experiment [5] the target is unchanged. In words: FACS on PHA-L-activated human PBMC, live αβTCR+ cells, donor 190980805C.

Data on two substances can be found in US20250382384A1.

Sequence of MUC1 on normal activated human T cells (human) (P15941 24-1255): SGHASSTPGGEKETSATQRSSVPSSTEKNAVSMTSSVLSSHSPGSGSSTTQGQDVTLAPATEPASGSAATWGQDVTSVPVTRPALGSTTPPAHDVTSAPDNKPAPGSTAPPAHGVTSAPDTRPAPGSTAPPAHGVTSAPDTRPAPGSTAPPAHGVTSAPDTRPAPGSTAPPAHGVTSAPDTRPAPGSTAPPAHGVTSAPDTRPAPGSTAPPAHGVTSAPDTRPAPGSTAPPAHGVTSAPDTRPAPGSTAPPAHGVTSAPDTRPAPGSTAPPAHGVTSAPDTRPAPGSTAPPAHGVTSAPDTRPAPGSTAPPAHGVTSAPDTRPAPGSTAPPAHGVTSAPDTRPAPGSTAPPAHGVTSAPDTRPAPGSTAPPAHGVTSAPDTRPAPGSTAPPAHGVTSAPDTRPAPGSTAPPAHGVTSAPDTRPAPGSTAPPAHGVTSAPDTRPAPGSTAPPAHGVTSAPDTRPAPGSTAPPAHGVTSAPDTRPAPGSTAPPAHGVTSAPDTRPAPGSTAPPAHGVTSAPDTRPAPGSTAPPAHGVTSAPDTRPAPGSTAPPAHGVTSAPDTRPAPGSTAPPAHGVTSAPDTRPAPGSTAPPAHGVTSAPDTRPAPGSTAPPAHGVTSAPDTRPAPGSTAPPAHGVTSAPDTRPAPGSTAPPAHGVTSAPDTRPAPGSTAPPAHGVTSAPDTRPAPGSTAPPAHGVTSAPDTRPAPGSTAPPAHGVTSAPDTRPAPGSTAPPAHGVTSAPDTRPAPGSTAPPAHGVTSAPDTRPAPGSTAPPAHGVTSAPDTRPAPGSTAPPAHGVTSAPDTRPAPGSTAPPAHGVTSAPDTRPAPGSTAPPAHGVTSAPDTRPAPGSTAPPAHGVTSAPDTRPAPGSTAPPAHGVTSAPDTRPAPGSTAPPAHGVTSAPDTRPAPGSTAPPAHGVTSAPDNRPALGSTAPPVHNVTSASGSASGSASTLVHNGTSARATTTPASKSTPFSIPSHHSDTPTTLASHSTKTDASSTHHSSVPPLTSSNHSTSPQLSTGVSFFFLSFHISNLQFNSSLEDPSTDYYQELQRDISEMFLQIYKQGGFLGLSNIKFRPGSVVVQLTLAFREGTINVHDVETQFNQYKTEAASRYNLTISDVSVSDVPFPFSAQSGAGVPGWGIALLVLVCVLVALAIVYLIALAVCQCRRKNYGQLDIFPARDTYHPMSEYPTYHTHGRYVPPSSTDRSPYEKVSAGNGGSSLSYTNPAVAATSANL

In the case of Isotype (antibody), the percent of αβTCR+ T cells in the dashed MUC1+ box (antibody-bound T cells) in experiment [1] stood at 0.29%; in experiment [2] it was 0.36%; in experiment [3], 0.05%; in experiment [4], 0.29%; in experiment [5], 0.15%.
With HMFG1 (antibody), the percent of αβTCR+ T cells in the dashed MUC1+ box (antibody-bound T cells) in experiment [1] amounted to 28.1%; in experiment [2] it was 23.2%; in experiment [3] it was 10%; in experiment [4], 28.1%; in experiment [5] it was 28.2%.
